Assay results as given in paper doi:10.1101/382838.

Target: C. elegans PGL-3 N-terminal dimerization domain (NtDD), wild type (C. elegans)
Assay: SEC-MALS

C. elegans PGL-3 N-terminal dimerization domain (NtDD), wild type (domain or fragment)
stoichiometry N: 2
